Data taken from IntAct's records for PubMed 20133654.

Legend:
obsl1_human OBSL1 = obsl1_human OBSL1 (UniProt O75147)
obscn_human OBSCN = obscn_human OBSCN (UniProt Q5VST9)

obsl1_human OBSL1, sequence (O75147 whole entry): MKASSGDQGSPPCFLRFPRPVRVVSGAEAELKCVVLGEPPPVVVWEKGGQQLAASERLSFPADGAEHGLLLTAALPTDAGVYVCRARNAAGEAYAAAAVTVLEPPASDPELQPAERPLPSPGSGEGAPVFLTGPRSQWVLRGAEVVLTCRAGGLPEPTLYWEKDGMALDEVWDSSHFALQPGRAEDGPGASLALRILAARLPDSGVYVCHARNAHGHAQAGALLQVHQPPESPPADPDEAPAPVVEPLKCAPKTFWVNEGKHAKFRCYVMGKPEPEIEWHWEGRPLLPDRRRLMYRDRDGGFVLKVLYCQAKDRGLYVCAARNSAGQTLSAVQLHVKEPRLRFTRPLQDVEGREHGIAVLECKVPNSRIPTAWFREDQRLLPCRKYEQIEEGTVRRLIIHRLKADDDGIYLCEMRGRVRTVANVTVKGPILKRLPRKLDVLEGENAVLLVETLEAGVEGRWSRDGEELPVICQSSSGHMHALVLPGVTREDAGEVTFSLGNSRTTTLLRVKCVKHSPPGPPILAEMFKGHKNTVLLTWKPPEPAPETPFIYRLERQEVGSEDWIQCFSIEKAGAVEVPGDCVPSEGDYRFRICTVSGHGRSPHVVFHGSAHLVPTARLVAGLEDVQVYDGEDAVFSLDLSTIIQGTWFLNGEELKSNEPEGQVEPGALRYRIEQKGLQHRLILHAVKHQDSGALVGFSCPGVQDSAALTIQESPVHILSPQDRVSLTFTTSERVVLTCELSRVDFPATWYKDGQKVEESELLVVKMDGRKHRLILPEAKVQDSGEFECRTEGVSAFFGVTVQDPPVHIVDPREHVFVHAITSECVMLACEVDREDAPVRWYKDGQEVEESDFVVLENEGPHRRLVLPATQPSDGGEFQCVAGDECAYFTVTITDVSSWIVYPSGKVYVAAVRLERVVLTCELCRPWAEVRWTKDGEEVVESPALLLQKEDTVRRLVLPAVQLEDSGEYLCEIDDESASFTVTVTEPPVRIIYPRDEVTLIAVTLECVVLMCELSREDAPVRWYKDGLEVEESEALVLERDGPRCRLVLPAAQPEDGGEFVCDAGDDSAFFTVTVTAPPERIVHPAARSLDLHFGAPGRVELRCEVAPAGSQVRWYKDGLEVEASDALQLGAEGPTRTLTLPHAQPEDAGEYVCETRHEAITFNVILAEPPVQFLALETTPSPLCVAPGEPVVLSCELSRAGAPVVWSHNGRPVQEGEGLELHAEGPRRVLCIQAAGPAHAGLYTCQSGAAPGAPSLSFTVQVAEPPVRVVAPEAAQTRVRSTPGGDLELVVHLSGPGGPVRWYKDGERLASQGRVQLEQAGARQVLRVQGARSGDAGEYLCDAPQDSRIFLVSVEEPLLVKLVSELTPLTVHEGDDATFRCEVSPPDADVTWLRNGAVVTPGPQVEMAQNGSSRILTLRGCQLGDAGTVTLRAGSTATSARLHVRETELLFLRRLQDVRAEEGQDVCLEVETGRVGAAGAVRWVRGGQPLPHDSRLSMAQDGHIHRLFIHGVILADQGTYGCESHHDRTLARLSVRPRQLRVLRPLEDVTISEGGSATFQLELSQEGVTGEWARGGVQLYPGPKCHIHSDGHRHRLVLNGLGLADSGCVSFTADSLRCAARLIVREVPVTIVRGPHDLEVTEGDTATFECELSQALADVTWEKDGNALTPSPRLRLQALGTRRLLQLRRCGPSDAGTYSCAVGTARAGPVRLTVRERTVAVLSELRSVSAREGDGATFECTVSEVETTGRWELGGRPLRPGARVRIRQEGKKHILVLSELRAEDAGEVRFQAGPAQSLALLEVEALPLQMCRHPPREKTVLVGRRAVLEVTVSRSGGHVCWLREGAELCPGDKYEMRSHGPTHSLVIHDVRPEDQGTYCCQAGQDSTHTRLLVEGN

For Titin (Homo sapiens), Q8WZ42 A34260Y, which “effect of a mutation on the interaction” value (obsl1_human OBSL1) is on record?
The value was “disrupting interaction”.

What about the “effect of a mutation on the interaction” value (obscn_human OBSCN) of the same substance?
Its value is “disrupting interaction”.

Which “effect of a mutation on the interaction” value (obscn_human OBSCN) does the source give for Titin (Homo sapiens), Q8WZ42 I34306N here?
Its value is “increasing interaction”.
